Target: T1, recombinant human IgE (human, UniProt P01854-1 1-428)
T1 construct: made in-house (ALK); preloaded on immobilised FcεRIα in the displacement ELISA
Test: IgE-FcεRIα displacement ELISA
Summary of the method: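 Streptavidin-coated plates carried site-specifically biotinylated recombinant human FcεRIα, loaded with recombinant human IgE at 13 ng/ml. sdAbs in a pM–μM series were added for 1 h, and displaced IgE was washed off. Percent displacement was the signal reduction versus the no-sdAb control, giving EC50 and maximal effect.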

T1 sequence (P01854 other isoform, or with tags, fused parts or gaps): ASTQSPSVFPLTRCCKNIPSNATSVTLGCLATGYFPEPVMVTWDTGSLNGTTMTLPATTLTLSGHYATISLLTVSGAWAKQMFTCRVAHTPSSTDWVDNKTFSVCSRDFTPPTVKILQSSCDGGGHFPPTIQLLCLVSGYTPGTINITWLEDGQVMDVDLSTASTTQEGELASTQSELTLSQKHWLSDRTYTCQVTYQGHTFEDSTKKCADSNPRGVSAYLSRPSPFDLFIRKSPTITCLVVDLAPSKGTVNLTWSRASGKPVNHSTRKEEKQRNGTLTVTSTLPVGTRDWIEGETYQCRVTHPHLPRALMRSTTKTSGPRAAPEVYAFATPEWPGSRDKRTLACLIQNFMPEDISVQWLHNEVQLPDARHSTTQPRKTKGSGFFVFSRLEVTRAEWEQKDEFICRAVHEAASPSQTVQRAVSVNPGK

B1: NIgG4B2A1(RS) (Fc fusion)
chain 1: QVQLVESGGGLVQAGGSLRLSCAVFGSTFSNNVADWYRQAPGKQRELVARISASGATREYGDSVKGRFTISRDDAKNTMYLQMNNLKPEDTAVYRCHKIEWEDLSRKDYWGQGTQVTVSRSGPPCPPCPAPEFLGGPSVFLFPPKPKDTLMISRTPEVTCVVVDVSQEDPEVQFNWYVDGVEVHNAKTKPREEQFNSTYRVVSVLTVLHQDWLNGKEYKCKVSNKGLPSSIEKTISKAKGQPREPQVYTLPPCQEEMTKNQVSLWCLVKGFYPSDIAVEWESNGQPENNYKTTPPVLDSDGSFFLYSRLTVDKSRWQEGNVFSCSVMHEALHNHYTQKSLSLSLGK
chain 2: EVQLLESGGGLVQPGGSLRLSCAASGFTFGNYDMAWVRQAPGKRPEWVSSIDTGGDITHYADSVKGRFTISRDNAKNTLYLQMNSLRPEDTAVYWCATDEEYALGPNEFDYYGQGTLVTVSSRSGPPCPPCPAPEFLGGPSVFLFPPKPKDTLMISRTPEVTCVVVDVSQEDPEVQFNWYVDGVEVHNAKTKPREEQFNSTYRVVSVLTVLHQDWLNGKEYKCKVSNKGLPSSIEKTISKAKGQPREPQVCTLPPSQEEMTKNQVSLSCAVKGFYPSDIAVEWESNGQPENNYKTTPPVLDSDGSFFLVSRLTVDKSRWQEGNVFSCSVMHEALHNHYTQKSLSLSLGK
In the case of B1, the Max effect is reported as over 95%.

B2: NIgG4B2A1(G4S)1 (Fc fusion)
chain 1: QVQLVESGGGLVQAGGSLRLSCAVFGSTFSNNVADWYRQAPGKQRELVARISASGATREYGDSVKGRFTISRDDAKNTMYLQMNNLKPEDTAVYRCHKIEWEDLSRKDYWGQGTQVTVSGGGGSGPPCPPCPAPEFLGGPSVFLFPPKPKDTLMISRTPEVTCVVVDVSQEDPEVQFNWYVDGVEVHNAKTKPREEQFNSTYRVVSVLTVLHQDWLNGKEYKCKVSNKGLPSSIEKTISKAKGQPREPQVYTLPPCQEEMTKNQVSLWCLVKGFYPSDIAVEWESNGQPENNYKTTPPVLDSDGSFFLYSRLTVDKSRWQEGNVFSCSVMHEALHNHYTQKSLSLSLGK
chain 2: EVQLLESGGGLVQPGGSLRLSCAASGFTFGNYDMAWVRQAPGKRPEWVSSIDTGGDITHYADSVKGRFTISRDNAKNTLYLQMNSLRPEDTAVYWCATDEEYALGPNEFDYYGQGTLVTVSSGGGGSGPPCPPCPAPEFLGGPSVFLFPPKPKDTLMISRTPEVTCVVVDVSQEDPEVQFNWYVDGVEVHNAKTKPREEQFNSTYRVVSVLTVLHQDWLNGKEYKCKVSNKGLPSSIEKTISKAKGQPREPQVCTLPPSQEEMTKNQVSLSCAVKGFYPSDIAVEWESNGQPENNYKTTPPVLDSDGSFFLVSRLTVDKSRWQEGNVFSCSVMHEALHNHYTQKSLSLSLGK
Work on B2 yielded a Max effect of over 95%.

B3: NIgG4B2A1(G4S)2 (Fc fusion)
chain 1: QVQLVESGGGLVQAGGSLRLSCAVFGSTFSNNVADWYRQAPGKQRELVARISASGATREYGDSVKGRFTISRDDAKNTMYLQMNNLKPEDTAVYRCHKIEWEDLSRKDYWGQGTQVTVSGGGGSGGGGSGPPCPPCPAPEFLGGPSVFLFPPKPKDTLMISRTPEVTCVVVDVSQEDPEVQFNWYVDGVEVHNAKTKPREEQFNSTYRVVSVLTVLHQDWLNGKEYKCKVSNKGLPSSIEKTISKAKGQPREPQVYTLPPCQEEMTKNQVSLWCLVKGFYPSDIAVEWESNGQPENNYKTTPPVLDSDGSFFLYSRLTVDKSRWQEGNVFSCSVMHEALHNHYTQKSLSLSLGK
chain 2: EVQLLESGGGLVQPGGSLRLSCAASGFTFGNYDMAWVRQAPGKRPEWVSSIDTGGDITHYADSVKGRFTISRDNAKNTLYLQMNSLRPEDTAVYWCATDEEYALGPNEFDYYGQGTLVTVSSGGGGSGGGGSGPPCPPCPAPEFLGGPSVFLFPPKPKDTLMISRTPEVTCVVVDVSQEDPEVQFNWYVDGVEVHNAKTKPREEQFNSTYRVVSVLTVLHQDWLNGKEYKCKVSNKGLPSSIEKTISKAKGQPREPQVCTLPPSQEEMTKNQVSLSCAVKGFYPSDIAVEWESNGQPENNYKTTPPVLDSDGSFFLVSRLTVDKSRWQEGNVFSCSVMHEALHNHYTQKSLSLSLGK
For B3, the Max effect was over 95%.

B4: NIgG4B2A1(G4S)3 (Fc fusion)
chain 1: QVQLVESGGGLVQAGGSLRLSCAVFGSTFSNNVADWYRQAPGKQRELVARISASGATREYGDSVKGRFTISRDDAKNTMYLQMNNLKPEDTAVYRCHKIEWEDLSRKDYWGQGTQVTVSGGGGSGGGGSGGGGSGPPCPPCPAPEFLGGPSVFLFPPKPKDTLMISRTPEVTCVVVDVSQEDPEVQFNWYVDGVEVHNAKTKPREEQFNSTYRVVSVLTVLHQDWLNGKEYKCKVSNKGLPSSIEKTISKAKGQPREPQVYTLPPCQEEMTKNQVSLWCLVKGFYPSDIAVEWESNGQPENNYKTTPPVLDSDGSFFLYSRLTVDKSRWQEGNVFSCSVMHEALHNHYTQKSLSLSLGK
chain 2: EVQLLESGGGLVQPGGSLRLSCAASGFTFGNYDMAWVRQAPGKRPEWVSSIDTGGDITHYADSVKGRFTISRDNAKNTLYLQMNSLRPEDTAVYWCATDEEYALGPNEFDYYGQGTLVTVSSGGGGSGGGGSGGGGSGPPCPPCPAPEFLGGPSVFLFPPKPKDTLMISRTPEVTCVVVDVSQEDPEVQFNWYVDGVEVHNAKTKPREEQFNSTYRVVSVLTVLHQDWLNGKEYKCKVSNKGLPSSIEKTISKAKGQPREPQVCTLPPSQEEMTKNQVSLSCAVKGFYPSDIAVEWESNGQPENNYKTTPPVLDSDGSFFLVSRLTVDKSRWQEGNVFSCSVMHEALHNHYTQKSLSLSLGK
Binder B4 has a Max effect of over 95%.

B5: CIgG4B2A1(RS) (Fc fusion)
chain 1: GPPCPPCPAPEFLGGPSVFLFPPKPKDTLMISRTPEVTCVVVDVSQEDPEVQFNWYVDGVEVHNAKTKPREEQFNSTYRVVSVLTVLHQDWLNGKEYKCKVSNKGLPSSIEKTISKAKGQPREPQVYTLPPCQEEMTKNQVSLWCLVKGFYPSDIAVEWESNGQPENNYKTTPPVLDSDGSFFLYSRLTVDKSRWQEGNVFSCSVMHEALHNHYTQKSLSLSLGKRSQVQLVESGGGLVQAGGSLRLSCAVFGSTFSNNVADWYRQAPGKQRELVARISASGATREYGDSVKGRFTISRDDAKNTMYLQMNNLKPEDTAVYRCHKIEWEDLSRKDYWGQGTQVTVS
chain 2: GPPCPPCPAPEFLGGPSVFLFPPKPKDTLMISRTPEVTCVVVDVSQEDPEVQFNWYVDGVEVHNAKTKPREEQFNSTYRVVSVLTVLHQDWLNGKEYKCKVSNKGLPSSIEKTISKAKGQPREPQVCTLPPSQEEMTKNQVSLSCAVKGFYPSDIAVEWESNGQPENNYKTTPPVLDSDGSFFLVSRLTVDKSRWQEGNVFSCSVMHEALHNHYTQKSLSLSLGKRSEVQLLESGGGLVQPGGSLRLSCAASGFTFGNYDMAWVRQAPGKRPEWVSSIDTGGDITHYADSVKGRFTISRDNAKNTLYLQMNSLRPEDTAVYWCATDEEYALGPNEFDYYGQGTLVTVSS
For B5, the EC50 was 130 nM and the Max effect was 70%.

B6: CIgG4B2A1(G4S)1 (Fc fusion)
chain 1: GPPCPPCPAPEFLGGPSVFLFPPKPKDTLMISRTPEVTCVVVDVSQEDPEVQFNWYVDGVEVHNAKTKPREEQFNSTYRVVSVLTVLHQDWLNGKEYKCKVSNKGLPSSIEKTISKAKGQPREPQVYTLPPCQEEMTKNQVSLWCLVKGFYPSDIAVEWESNGQPENNYKTTPPVLDSDGSFFLYSRLTVDKSRWQEGNVFSCSVMHEALHNHYTQKSLSLSLGKGGGGSQVQLVESGGGLVQAGGSLRLSCAVFGSTFSNNVADWYRQAPGKQRELVARISASGATREYGDSVKGRFTISRDDAKNTMYLQMNNLKPEDTAVYRCHKIEWEDLSRKDYWGQGTQVTVS
chain 2: GPPCPPCPAPEFLGGPSVFLFPPKPKDTLMISRTPEVTCVVVDVSQEDPEVQFNWYVDGVEVHNAKTKPREEQFNSTYRVVSVLTVLHQDWLNGKEYKCKVSNKGLPSSIEKTISKAKGQPREPQVCTLPPSQEEMTKNQVSLSCAVKGFYPSDIAVEWESNGQPENNYKTTPPVLDSDGSFFLVSRLTVDKSRWQEGNVFSCSVMHEALHNHYTQKSLSLSLGKGGGGSEVQLLESGGGLVQPGGSLRLSCAASGFTFGNYDMAWVRQAPGKRPEWVSSIDTGGDITHYADSVKGRFTISRDNAKNTLYLQMNSLRPEDTAVYWCATDEEYALGPNEFDYYGQGTLVTVSS
Binder B6 has an EC50 of 0.8 nM and a Max effect of over 95%.

B7: CIgG4B2A1(G4S)2 (Fc fusion)
chain 1: GPPCPPCPAPEFLGGPSVFLFPPKPKDTLMISRTPEVTCVVVDVSQEDPEVQFNWYVDGVEVHNAKTKPREEQFNSTYRVVSVLTVLHQDWLNGKEYKCKVSNKGLPSSIEKTISKAKGQPREPQVYTLPPCQEEMTKNQVSLWCLVKGFYPSDIAVEWESNGQPENNYKTTPPVLDSDGSFFLYSRLTVDKSRWQEGNVFSCSVMHEALHNHYTQKSLSLSLGKGGGGSGGGGSQVQLVESGGGLVQAGGSLRLSCAVFGSTFSNNVADWYRQAPGKQRELVARISASGATREYGDSVKGRFTISRDDAKNTMYLQMNNLKPEDTAVYRCHKIEWEDLSRKDYWGQGTQVTVS
chain 2: GPPCPPCPAPEFLGGPSVFLFPPKPKDTLMISRTPEVTCVVVDVSQEDPEVQFNWYVDGVEVHNAKTKPREEQFNSTYRVVSVLTVLHQDWLNGKEYKCKVSNKGLPSSIEKTISKAKGQPREPQVCTLPPSQEEMTKNQVSLSCAVKGFYPSDIAVEWESNGQPENNYKTTPPVLDSDGSFFLVSRLTVDKSRWQEGNVFSCSVMHEALHNHYTQKSLSLSLGKGGGGSGGGGSEVQLLESGGGLVQPGGSLRLSCAASGFTFGNYDMAWVRQAPGKRPEWVSSIDTGGDITHYADSVKGRFTISRDNAKNTLYLQMNSLRPEDTAVYWCATDEEYALGPNEFDYYGQGTLVTVSS
B7 was tested, and the EC50 was 0.7 nM and the Max effect was over 95%.

B8: CIgG4B2A1(G4S)3 (Fc fusion)
chain 1: GPPCPPCPAPEFLGGPSVFLFPPKPKDTLMISRTPEVTCVVVDVSQEDPEVQFNWYVDGVEVHNAKTKPREEQFNSTYRVVSVLTVLHQDWLNGKEYKCKVSNKGLPSSIEKTISKAKGQPREPQVYTLPPCQEEMTKNQVSLWCLVKGFYPSDIAVEWESNGQPENNYKTTPPVLDSDGSFFLYSRLTVDKSRWQEGNVFSCSVMHEALHNHYTQKSLSLSLGKGGGGSGGGGSGGGGSQVQLVESGGGLVQAGGSLRLSCAVFGSTFSNNVADWYRQAPGKQRELVARISASGATREYGDSVKGRFTISRDDAKNTMYLQMNNLKPEDTAVYRCHKIEWEDLSRKDYWGQGTQVTVS
chain 2: GPPCPPCPAPEFLGGPSVFLFPPKPKDTLMISRTPEVTCVVVDVSQEDPEVQFNWYVDGVEVHNAKTKPREEQFNSTYRVVSVLTVLHQDWLNGKEYKCKVSNKGLPSSIEKTISKAKGQPREPQVCTLPPSQEEMTKNQVSLSCAVKGFYPSDIAVEWESNGQPENNYKTTPPVLDSDGSFFLVSRLTVDKSRWQEGNVFSCSVMHEALHNHYTQKSLSLSLGKGGGGSGGGGSGGGGSEVQLLESGGGLVQPGGSLRLSCAASGFTFGNYDMAWVRQAPGKRPEWVSSIDTGGDITHYADSVKGRFTISRDNAKNTLYLQMNSLRPEDTAVYWCATDEEYALGPNEFDYYGQGTLVTVSS
In the case of B8, the EC50 is reported as 2.1 nM and the Max effect is reported as over 95%.
